Source: paper PMC4255305

Biological target: (R)-selective amine : pyruvate transaminase from Nectria haematococca, His-tagged (construct pQR1023) (Nectria haematococca)
Test: SEC; Superdex 200 HiLoad 16/60 gel filtration, 50 mM Tris/HCl, 0.1 M NaCl pH 7.5, 1.0 mL/min; dimer from the elution volume

- stoichiometry N: 2
Substance: (R)-selective amine : pyruvate transaminase from Nectria haematococca, His-tagged (construct pQR1023) (enzyme)
